Non-standard residues stand in square brackets, D forms with d. No end group written: not given here. sY = N[C@@H](Cc1ccc(OS(=O)(=O)O)cc1)C(=O)O
Legend:
[1] = molecular target: T1, PSGL-1 on KG-1 cells (human, UniProt Q14242 42-412, sulfated tyrosines in the N-terminal site); assay: radioreceptor competition assay on KG-1 cells, 125I-Y1-IgG tracer
T1 construct: whole, on cells; results told for KG-1 cells are written against this molecule; also called P-Selectin Glycoprotein Ligand-1; CD162
T1 sequence (looked up): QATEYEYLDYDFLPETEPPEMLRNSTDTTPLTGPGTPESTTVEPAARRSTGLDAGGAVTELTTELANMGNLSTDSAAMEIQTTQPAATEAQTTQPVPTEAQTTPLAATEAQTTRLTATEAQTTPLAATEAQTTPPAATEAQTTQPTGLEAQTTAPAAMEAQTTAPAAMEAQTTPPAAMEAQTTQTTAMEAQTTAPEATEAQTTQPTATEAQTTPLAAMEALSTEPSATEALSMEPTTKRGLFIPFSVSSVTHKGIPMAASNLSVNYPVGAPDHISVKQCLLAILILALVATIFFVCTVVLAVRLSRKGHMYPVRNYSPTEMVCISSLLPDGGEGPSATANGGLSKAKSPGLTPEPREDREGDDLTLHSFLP
Experimental: (§1) The assay system involved the use of radioactive ligands that were prepared by iodination with ¹²⁵I using chloramine T on the Y1-IgG construct or the Bolton-Hunter (CONY1) reagent. The assay tubes contained 5×10⁶ KG-1 cells per 0.2 ml and a labeled tracer with varying amounts of unlabeled competitor, in PBS+0.1% BSA, pH 7.4. After one hour incubation with agitation at 4° C., the cells were thoroughly washed with cold buffer and taken for radioactivity counting.
For the radio receptor binding assay (RRA), 2 ng/tube of ¹²⁵I-Y1-IgG was used, and competition was performed with each of the three molecules.

[2] = molecular target: T1, PSGL-1 on KG-1 cells; assay: FACS on KG-1 cells, directly FITC-labelled
[3] = molecular target: T1, PSGL-1 on KG-1 cells; assay: radio receptor assay on KG-1 cells, dimer as competitor
[4] = molecular target: T1, PSGL-1 on KG-1 cells; assay: second radioreceptor competition assay on KG-1 cells
Experimental: as §1
In a second RRA using labeled CONYL, a 100 ng/tube of ¹²⁵I-Y1-IgG was used, and competition was performed with each of the three molecules.

[5] = molecular target: T2, Y1 scFv; assay: competition ELISA on coated glycocalicin, 0.25 µg/well Y1, peptide 0.5 µM
T2 construct: Fully human scFv from the Nissim I phage library; Used biotin-labelled in the Western blots; also called scFv Y1; scFv-Y1
T2 sequence (scFv, as listed by the source): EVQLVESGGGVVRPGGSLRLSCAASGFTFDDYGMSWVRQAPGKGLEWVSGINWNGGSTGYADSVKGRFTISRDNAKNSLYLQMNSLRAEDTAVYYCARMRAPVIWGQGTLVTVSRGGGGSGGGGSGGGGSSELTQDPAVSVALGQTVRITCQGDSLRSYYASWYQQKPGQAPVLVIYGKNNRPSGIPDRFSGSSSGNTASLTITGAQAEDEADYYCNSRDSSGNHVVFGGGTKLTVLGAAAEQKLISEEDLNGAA
Experimental: (§2) ELISA assays were developed to evaluate the effect of the GPIb derived synthetic peptides on the binding of Y1 to purified glycocalicin. In addition, FACS analysis using washed platelets was carried out. To evaluate the importance of sulfated tyrosine within the Y1 binding site of GPIb, a competitive binding FACS analysis was used. Y1-scFv at a concentration of 1 μg was preincubated with different peptides at concentrations of 2.5 and 200 μM. After a preincubation for 30 minutes at room temperature the mixture was added to a tube containing ˜10⁷ washed platelets and the binding of Y1 to the washed platelets was assessed using polyclonal rabbit anti-scFv-PE. The inhibitory effect of the peptides compared to control binding (Y1 alone) was evaluated by measuring the residual binding of Y1 to washed platelets. The peptides and the results are described in Table 1 and are similar to results that were observed using the same peptides in an ELISA assay (Table B). In both assays, a control level of Y1 binding was determined, as follows. A polystyrene microtiter maxisorb plate was coated with (a) purified glycocalicin or (b) washed platelets. After extensive washing, 0.5 μg/well of Y1 was added. The plate was then incubated with rabbit anti-scFv followed by addition of anti rabbit —HRP (horse radish peroxidase) and HRP substrate. The level of anti rabbit —HRP binding was measured by the intensity of the color produced, and the level of anti rabbit —HRP binding correlates with the level of binding of anti Y1-scFv and the level of binding of Y1. The optical density was measured at A405. Each sample was assayed in duplicate, and the average was calculated.
(§3) The effect of synthetic GPIbα peptides on Y1 binding to purified glycocalicin was evaluated by mixing varying concentrations of the peptides with a constant amount of Y1. […] The inhibitory effect of the peptides was evaluated by measuring the residual binding of Y1 to glycocalicin using rabbit anti Y1scFv and anti rabbit —HRP antibodies, as described for evaluation of Y1 binding in the absence of peptides.

[6] = molecular target: T2, Y1 scFv; assay: competition ELISA on coated glycocalicin, 0.25 µg/well Y1, peptide 2.5 µM
Experimental: as §2, §3

[7] = molecular target: T2, Y1 scFv; assay: competitive FACS, 1 µg Y1-scFv on ~10^7 washed platelets, peptide 200 µM
Experimental: as §2

[8] = molecular target: T2, Y1 scFv; assay: competition ELISA on coated glycocalicin, 0.25 µg/well Y1, peptide 25 µM
Experimental: as §2, §3

[9] = molecular target: T2, Y1 scFv; assay: competitive FACS, 1 µg Y1-scFv on ~10^7 washed platelets, peptide 2.5 µM
Experimental: as §2

B1: Y1-cys-kak (cysteine dimer) (other)
scFv: MEVQLVESGGGVVRPGGSLRLSCAASGFTFDDYGMSWVRQAPGKGLEWVSGINWNGGSTGYADSVKGRFTISRDNAKNSLYLQMNSLRAEDTAVYYCARMRAPVIWGQGTLVTVSRGGGGSGGGGSGGGGSSELTQDPAVSVALGQTVRITCQGDSLRSYYASWYQQKPGQAPVLVIYGKNNRPSGIPDRFSGSSSGNTASLTITGAQAEDEADYYCNSRDSSGNHVVFGGGTKLTVLGGGGCKAK
modifications: Homodimer held by an interchain disulfide between Cys243 of chain 1 and Cys243 of chain 2.
notes: also called Y1-cys-kak scFv; dimer Y1-cys-kak
Kd [1]: ~0.04 µM | fold higher affinity than CONY1 [1]: 30 fold | fold lower affinity than the full Y1 antibody [1]: 2 fold | fold less material than the monomer [2]: 10 fold | fold efficiency against the monomer [3]: 30 fold | Kd [4]: ~0.05 µM | fold higher affinity than CONY1 [4]: 20 fold

B2: P-3-S (peptide)
peptide: GDEGDTDL[sY]D[sY][sY]P
Residual Binding of Y1 (% of baseline) [5]: 80 % of baseline | Residual Binding of Y1 (% of baseline) [6]: 67 % of baseline | Residual Binding of Y1 (% of baseline) (Geo Mean) [7]: 26 % of baseline | Residual Binding of Y1 (% of baseline) [8]: 21 % of baseline | Residual Binding of Y1 (% of baseline) (Geo Mean) [9]: 82 % of baseline

B3: P-2-S (peptide)
peptide: TDL[sY]D[sY][sY]PEEDTE
Residual Binding of Y1 (% of baseline) [5]: 78 % of baseline | Residual Binding of Y1 (% of baseline) [6]: 52 % of baseline | Residual Binding of Y1 (% of baseline) (Geo Mean) [7]: 7 % of baseline | Residual Binding of Y1 (% of baseline) [8]: 15 % of baseline | Residual Binding of Y1 (% of baseline) (Geo Mean) [9]: 61 % of baseline

B4: EGR (peptide)
peptide: REEGRQHFFLLEGRSSYS
notes: also called negative control peptide
Residual Binding of Y1 (% of baseline) [5]: 121 % of baseline | Residual Binding of Y1 (% of baseline) [6]: 100 % of baseline | Residual Binding of Y1 (% of baseline) (Geo Mean) [7]: 119 % of baseline | Residual Binding of Y1 (% of baseline) [8]: 89 % of baseline | Residual Binding of Y1 (% of baseline) (Geo Mean) [9]: 96 % of baseline
